This note sets out measurements from US20230149544A1 (ALTRUBIO, published 2023).

The target of the experiment is T1, human PSGL-1 (human, UniProt Q14242 42-412).
T1 sequence: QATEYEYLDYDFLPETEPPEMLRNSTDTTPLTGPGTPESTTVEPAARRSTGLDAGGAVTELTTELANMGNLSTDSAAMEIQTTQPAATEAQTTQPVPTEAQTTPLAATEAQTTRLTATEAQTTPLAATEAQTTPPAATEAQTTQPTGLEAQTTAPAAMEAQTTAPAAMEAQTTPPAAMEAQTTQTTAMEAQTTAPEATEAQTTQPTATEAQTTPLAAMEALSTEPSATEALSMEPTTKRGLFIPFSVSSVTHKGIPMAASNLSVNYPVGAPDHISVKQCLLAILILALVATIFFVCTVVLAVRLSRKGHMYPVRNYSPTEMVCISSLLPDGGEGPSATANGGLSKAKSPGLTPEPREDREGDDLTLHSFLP
Description: cell-based or functional assay.

B1: anti-PSGL-1 antibody 15A7H (antibody, human IgG4 S228P, kappa, V domains shown)
VH: EVQLVESGGGLVQPGGSLRLSCAASGFTFSSFGMHWVRQAPGKGLEWVAYINGGSSTIFYANAVKGRFTISRDNAKNTLYLQMNSLRAEDTAVYYCARYASYGGGAMDYWGQGTLVTVSS
VL: DIQMTQSPSSLSASVGDRVTITCRSSQSIVHNDGNTYFEWYQQKPGKAPKLLIYKVSNRFSGVPSRFSGSGSGTHFTLTISSLQPEDFATYYCFQGSYVPLTFGQGTKVEIKR
B1: the “EC50 15A7H, single treatment; apoptosis of activated T cells (Annexin V/PI, 48 h, with cross-linker), donor N084, ratio block 1.1:1” value came to 0.328 µg/mL; the “EC50 15A7H, single treatment; apoptosis of activated T cells (Annexin V/PI, 48 h, with cross-linker), donor N084, ratio block 3.3:1” value is 0.328 µg/mL; the “EC50 15A7H, single treatment; apoptosis of activated T cells (Annexin V/PI, 48 h, with cross-linker), donor N089, ratio block 1.1:1” value was 0.816 µg/mL; the “EC50 15A7H, single treatment; apoptosis of activated T cells (Annexin V/PI, 48 h, with cross-linker), donor N089, ratio block 3.3:1” value amounted to 0.865 µg/mL. In addition, the “EC50 15A7H, single treatment; apoptosis of activated T cells (Annexin V/PI, 48 h, with cross-linker), donor N102, ratio block 0.37:1” value turned out to be 0.959 µg/mL; the “EC50 15A7H, single treatment; apoptosis of activated T cells (Annexin V/PI, 48 h, with cross-linker), donor N102, ratio block 1.1:1” value was 0.959 µg/mL; the “EC50 15A7H, single treatment; apoptosis of activated T cells (Annexin V/PI, 48 h, with cross-linker), donor N102, ratio block 3.3:1” value came out at 0.959 µg/mL; the “EC50 15A7H, single treatment; apoptosis of activated T cells (Annexin V/PI, 48 h, with cross-linker), donor N103, ratio block 0.37:1” value came to 1.4 µg/mL. Also, the “EC50 15A7H, single treatment; apoptosis of activated T cells (Annexin V/PI, 48 h, with cross-linker), donor N103, ratio block 1.1:1” value amounted to 1.4 µg/mL and the “EC50 15A7H, single treatment; apoptosis of activated T cells (Annexin V/PI, 48 h, with cross-linker), donor N103, ratio block 3.3:1” value was 1.4 µg/mL.
